Test results published in paper PMC4609913 (2015).

Columns and labels:
[1] = target: T1, recombinant ADAM10 (A Disintegrin and Metalloproteinase 10) (UniProt O14672 20-748); experiment: FRET
T1 chain: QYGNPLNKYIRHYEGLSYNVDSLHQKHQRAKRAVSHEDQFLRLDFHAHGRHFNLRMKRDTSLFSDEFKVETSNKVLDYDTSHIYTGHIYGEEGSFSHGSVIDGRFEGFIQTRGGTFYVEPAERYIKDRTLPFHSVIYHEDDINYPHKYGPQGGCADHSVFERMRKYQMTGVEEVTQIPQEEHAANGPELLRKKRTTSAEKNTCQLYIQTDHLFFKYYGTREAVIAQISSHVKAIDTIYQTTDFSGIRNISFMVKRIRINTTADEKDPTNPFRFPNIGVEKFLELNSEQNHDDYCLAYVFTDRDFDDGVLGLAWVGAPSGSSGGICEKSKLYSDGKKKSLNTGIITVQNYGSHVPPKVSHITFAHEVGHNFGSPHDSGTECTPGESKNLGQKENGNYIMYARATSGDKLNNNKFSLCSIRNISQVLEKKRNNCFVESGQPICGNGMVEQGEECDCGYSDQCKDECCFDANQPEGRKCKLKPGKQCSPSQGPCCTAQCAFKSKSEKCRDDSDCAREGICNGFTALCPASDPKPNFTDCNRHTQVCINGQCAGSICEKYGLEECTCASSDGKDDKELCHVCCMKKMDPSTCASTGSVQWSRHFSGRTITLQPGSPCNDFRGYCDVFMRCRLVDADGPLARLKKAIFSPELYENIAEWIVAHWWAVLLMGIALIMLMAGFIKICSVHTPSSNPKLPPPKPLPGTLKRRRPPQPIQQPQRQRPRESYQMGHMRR

[2] = target: recombinant ADAM17 (A Disintegrin and Metalloproteinase 17) (UniProt P78536 215-671); experiment: FRET
recombinant ADAM17 (A Disintegrin and Metalloproteinase 17), sequence (P78536 215-671): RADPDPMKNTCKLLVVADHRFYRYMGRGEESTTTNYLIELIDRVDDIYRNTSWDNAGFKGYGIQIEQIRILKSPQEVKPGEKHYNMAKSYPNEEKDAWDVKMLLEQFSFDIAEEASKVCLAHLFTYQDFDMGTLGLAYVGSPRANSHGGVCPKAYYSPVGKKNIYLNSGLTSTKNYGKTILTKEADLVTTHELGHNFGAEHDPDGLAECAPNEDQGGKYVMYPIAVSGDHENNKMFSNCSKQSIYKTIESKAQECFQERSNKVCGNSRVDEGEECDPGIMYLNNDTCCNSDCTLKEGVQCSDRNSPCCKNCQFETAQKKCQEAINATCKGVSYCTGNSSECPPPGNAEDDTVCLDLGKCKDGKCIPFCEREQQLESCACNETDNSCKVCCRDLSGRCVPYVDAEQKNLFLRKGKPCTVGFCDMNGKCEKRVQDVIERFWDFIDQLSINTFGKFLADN

Ki [1]: > 14 µM
Ki [2]: > 14 µM
B1: recombinant His-tagged human ADAM12 prodomain (amino acids 29-206) (domain or fragment)
chain: RGVSLWNQGRADEVVSASVGSGDLWIPVKSFDSKNHPEVLNIRLQRESKELIINLERNEGLIASSFTETHYLQDGTDVSLARNYTVILGHCYYHGHVRGYSDSAVSLSTCSGLRGLIVFENESYVLEPMKSATNRYKLFPAKKLKSVRGSCGSHHNTPNLAAKNVFPPPSQTWARRHK
